The NTF2 design screens of Basanta et al. (2020)

Assay: protease stability score; higher = more stable; yeast display proteolysis, trypsin and chymotrypsin;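 also: relative to predicted unfolded state with 0 unfolded-like and 1 meaning tenfold more protease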
In the case of “NHEEEHAKTLFEEWLRVLLTGDWKMFSHLADPHTRIHIGNKDIHGRDLFVELVIRELEEIRVILIVEELSAQGDKSRMRTRLIIRQGEFEHRTELRLEIVFVDGKFTSIHLRHK”, the protease stability score is reported as 0.599.
Work on “SEEEKRWEDWARLMLNWLRTGDEEKISNLMDPNAKSETLIDGRRVEYHGREEVSRFLFELFEEFGIDHLHVRHYDVFDGVFHAHFRVHVGEKERELEVEFHVVDGRITVDTVKFH” yielded a protease stability score of 1.5.
With “SEVEESIEHAREIVTEVIKTGDEHHLNRLADPNTRVVFDGKDLHGRERLEEVLREMGVNHIEIKDMKYDSQGNKVHIDIDGRVNVGEKSHNTHLHWIVEKVNGRWLLSSIIIIIR” the protease stability score was 0.886.
For “SELEELWRKMVEFQERSNTTGDEKSFLEMLDPDMRIIIGDFEFHGRENAKDYLRRVDHIHHVEYRRVDLQGDKAHIEMHINGHWDGRTHRTDTHLHLRKFNGRWHVEDVQVD”, the protease stability score was 1.41.
With “DEEEELVRLATEHSLELMRTGDWSHLHKLMDPHALLSVNGREVHGRENAVRLIITILEDLGVKHFHLEHVEVIDGRVNIDGRLHQGDKKLNNEIWLVKINGRWRLKSIHIELK” the protease stability score was 1.17.
Work on “DEEDEDARVALEEVMRSQITGDEEKSEKLIDPHVRLEIGDKIYHGRELVVRVEHELGVKHIEPKKVEMQGDWIDLHGVIVYGDKKIHQTLHLLKFNGKWLIKEIRIK” yielded a protease stability score of 1.6.
Sequence “DEDRRDAEEFIRLFHEAVQTGDEDTLRKFIDPRARIDVNGRILHGREEYLEWMREVLRFFKNVRFEVDLHDVKIVGDKIHVDTTLWTHFNGRDLELKTRVHLEKVNGVWRIKRIDFE” has a protease stability score of 0.77.
With “DERDEEAHRMTETFYELQRTGDEESTHHLADPHVKFEYLIGDKYFEIHGWDRVLEFWLRYKGVREEIDHRRVRVINGKIHIELIVKIRIGDKTHVHRIELNIEKVDGRWILREVRVEVK” the protease stability score was 1.
With “DDSHKKLKHAFELLLHALRTGDEDLLKELIDPEVRILFNGKIFHGREWWEHLLRHIRFKDIHIKNIDIQGDKLRVDSRLHIIIDGRHVDFEAEFYIVKVDGRWFTEEIVIK” the protease stability score was 2.21.
“DEEEELSKIAYHLTEHIWETGDEDLLKELLDPNTQVTQGEWHVHGRESMHRFLRHVRERLGVDQIDVDVKSVRAFNGVVTTHVNLHFNGRTYTMTLFSNKYNGKWTVKSMKIQ” showed a protease stability score of 1.29.
Work on “SEHDKVLRELINLLWEALATGDFDQLHKLLDPHVKLDIGEWHSHGRESFIKNWLDDIRRVKNVRYELRHMDVINGQAHLDIHESYDGVRYDSELIIFIIDGKIHEITVHIR” yielded a protease stability score of 0.83.
“DEDEELAKHAIKHWLEALETGDEKRLKELIDPNTRLIVNGQEFHGMESVSKKLIEEIERIPNVTLELHDVRIYNGRVNTDVTVRYNGRTITLHLIILKVNGKWIMESIQLH” showed a protease stability score of 1.78.
With “SEEEHDAHIALKIWLDNLFTGDEEKLKEMMDPNVRMDFDGRHIHGREAIEMLLRRVDHWHHIEVRLEHLRIIGDKVILHIRQVEHIQIGDKHDRVHSNITLVFLKFDGKWFIREIRIK” the protease stability score was 2.78.
Sequence “DEHKHIAEEIARIVLENWMTGNEEIFKKMADPHVRVHINGKKSHGRDHYHELWRLLFEHIRIEHLHIRHMDKQGDFVRVEVEVTGHIDGRRETVESEFRIRTVNGVLRDVEIHFH” has a protease stability score of 1.2.
Work on “NEEEHELELAYRWYEESILTGDEDELTHLLDPHVRLQYGDKEFHGREIVLHFFHKHWREMGAKYIEVHSISLYGDKIVFDSTLHINGRTHRVHVTSRKVDGRWRIRSMRIN” yielded a protease stability score of 1.63.
“DEDEENAKMFTELLWRVLLTGDEELFKEMADPHVRVIFDGREIHGRDDIAHWITEMRFEINILRINDVRLVGDYIKIDGTMERQGEINGKRIRSSHRIIIFVRKINGKWHLEQLHFS” showed a protease stability score of 2.26.
With “DEHEEELKRILELIEHLIHTGDEDTMLHLADPNVRSHVNGRDRHGWNLYLRLLEELVWRLGIKHMEIHSTTAIDGRVIIHMRLHVGDKTIHVILLFQVVDGRVKSSSVEVHEE” the protease stability score was 1.44.
With “DEKEEILVDLFKHFLEAMLTGDEEQVNRLVDPNARHDIDGVEHHGWEFLEWFLSRVDHIELLEVKRVRNIDGRIEADLHIDITVNGKKERHDVEVHIVIIDGVFHSIKVIKH” the protease stability score was 2.23.
With “HEDEEMLHRLAELVEELFRTGDEEMHDHLMDPHARINIDGRDLHGRENMRILWQKLGIERVHVEFHDVKAIGDKASVHTFLEVNGVKVEILIRSEKINGRWVITQINIVFH” the protease stability score was 0.386.
Sequence “SEEDTERTERFELMLHSWLTGDEEFWEKNADPNARLKLLVNGRDIRFHGREMVSEAIRKTLDDLGVDHRRIEHKEVQGDKVHIHQKIDVGDKELKVRIVVVVINGRNEMIIVEVI” has a protease stability score of 2.26.
Work on “SDDHEEAKEALRLWVEDLLTGDEDRLRELVDPNARIEIIVNGRTIEYHGRDRVNKWTSFVLLRLGVKHSHVHEIRLIDGRVHNDLRIHQGDKDQILHLSFEKINGKWTLREVKISVV” yielded a protease stability score of 1.39.
“SEENELAERFFKELRDHFETGDEDVLDEMADPNMKLHINGRNFHGMHVYSKLARWLVDHWRSEFKVRRIEVQGNKIIIDSQLTLHIDGQRIIHDTRMESEKVNGKWLLRQFIVV” gave a protease stability score of 1.71.
Sequence “SEREEDTEHHMRMLIKDHETGDWRSWKKLVDPHVKLEINGREHHGRELALHMFRRVDHIESTVRDRTIQGDKVHHDGHLIINVDGVNIIVRSEIILIKVDGQWRIEILIFR” has a protease stability score of 0.957.
Sequence “DHMERLLKHVARLFIHALHTGDESILTDLLDPNVRVHIHIGDKEIRLHGREHVRHYLEHELTHWRTEFHLTHFDIVGNKFENHTNVIIRIDGVEIRLDRRHEVVLYDGKIEEVIVRVE” has a protease stability score of 2.37.
In the case of “HQEDRLVFALAKDWIDNLETGDEDKMLQRADPRRQLIIDGRTFHGWENTYENMKQIRIEHLEIRDMTVVDGRIHINTHSILIINGRRFETETSIRLVVVNGVIQDVDININ”, the protease stability score is reported as 0.081.
For “SEEEEMARRFTDRLLHFTQTGDERLVHEFVDPNARDDVNGREFHGWRSIHDIMRRLGIDHIRIRHIEVQGDKVRSHWQYVFNGVILEVEINTEKVDGRWLIKSVTFK”, the protease stability score was 1.14.
Sequence “DEDHEQSHEMLELFVHSWKTGDWEILIKLLDPHARSIVNGREVHGREEISRYFKEELKKIPNMRIEVKIRSVEIQGDKVDNDVEIIIKYGDKLIRRKVHLLDLKVDGRWFLTDVTIE” has a protease stability score of 1.96.
With “REDEQDLRKFVEDLIHSLKTGDEDSTSRLLDPHVRVEIGDKEFVGREDFTRLMVETVRRYDHIRFDLRRVEDIDGKAHIHGHIYIRVNGVWHHKEVEIIIDKINGKWVIRELRVK” the protease stability score was 2.33.
With “DNEDKLAEQMLKEILELWHTGDEEKWSNLADPNTRIHINGQESHGRDNFHKFWEDFHSTLGIDVLKFSLKDFRIQGDKSRVDVETKVKQGDKSEHYRTFLIFIIVDGRVKTIEIRIK” the protease stability score was 0.703.
Work on “HEDYEDLDKLREHLLTAMKTGDWEVMYRNFDPHVRLLYNGKDTHGREDLRRLVEEMRTRDVRIIITREEIQGNKVFMHGTLEVDGNWNGVDRHIHREVTHIMVKIDGRWIVTVERIR” yielded a protease stability score of 0.899.
Work on “DEKEKDFHHMLEDWRWATRTGDEDTLKDLMDPNAKVRYGDYEFHGREHVIQFYQQIRFHEIHVHHVRVIGNKLEADTRVRIEYNGRELSFETHLVLLKIDGKWVMKIHEID” yielded a protease stability score of 2.13.
With “KEDEEYFREVTKNLLELIETGDFDMLTELLDPHMLLDVNGRTFHGWELAVEWYRQHVKKFGIDNIKVTLKHIHIQGNKIHLDVEVEIGDKTERREFVLTKINGRWRFDSVVVR” the protease stability score was 2.19.
For “DEDERELQELREHFIRKFLTGDWEAIANLFDPNTRMNFNGREVHGMEEVMRVFWEIMEKLGVDHQTIHDVKWQGDKLEVHSYLDINGRRHKLRIELQVIDGVIRSVHFEIE”, the protease stability score was 1.21.
For “SETEETVRRFFELLMKLEHTGNEEAIEKLFDPNMKWHQGEKERHGRETFSRMVSELRIHDFRLHRIEIYGDKAIIEGSVDGNFNGQRSEVEVTIHLEKIDGRWFIHSIHLS”, the protease stability score was 1.15.
In the case of “DEDREFLIEMIELFMKFLLTGDWEQFAHLADPNDRFNVNGRDNHGREVWIKEVEEMRIHSLHIEDQDAFNGVIHVDFRVEGHFDGRTHIQKVEIHIRIVNGRVKSVEHHIH”, the protease stability score is reported as 0.575.
Sequence “DEREELVTRFWKFFVEASRTGDWRKLEDRADPHVRLHIDGVDLHGREEFAEEHRRHLKKFKNVKIHYEIHDMDIQGEKVHVDYRIRLDIGDKRTENIIRMDIVKIDGKWLIQEMHVD” has a protease stability score of 0.89.
